The source of these data is the nanobody polyreactivity screen of Harvey et al. (2022).

A short description of the data set: yeast display, Sf9 membrane polyspecificity reagent, FACS + sequencing; frameworks hold sequencing errors. Put shortly:
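Galactose-induced (36–48 hours) yeast carrying a synthetic nanobody display library were exposed to 10% biotinylated, detergent-solubilized Sf9 membrane reagent at 4 °C for 1 hour. FACS followed streptavidin microbead enrichment, using low and high (top ~1%) gates for expression (anti-HA) and reagent binding (streptavidin). Colony PCR, MiSeq 2 × 250 sequencing and CDR-length filtering followed. Labels for polyreactivity reflect the gate of origin.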
As to “QVQLVESGGGLVQAGGSLRLSCAASGLIFGVNAMGWYRQAPGKERELVAVISRGGRTNYADSVKGRFTISRDNAKNTVYLQMNSLKPEDTAVYYCATYYTNKVPARYYWGQGTQVTVSS”, the “polyreactivity (PSR sort gate)” value is on record as “high polyreactivity”. Then “QVQLVESGGGLVQAGGSLRLSCAASGLIFGVYAMGWYRQAPGKESELVAAISKNGDRTYYADSVKGRFTISRDNAKNTVYLQMNCLKPEDTAVYYCAAVWARSTYGPYYYWGQGTQVTVSS”, with “high polyreactivity”; and “QVQLVESGGGLVQAGGSLRLSCAASGLIFGYNAMGWYRQAPGKERELVAGISSGGSTNYADSVKGRFTISRDNAKNTVYLQMNSLKPEDTAVYYCNADGYLAERFVIRLDEYRDYDYWGQGTQVTVSS”, with “low polyreactivity”; and “QVQLVESGGGLVQAGGSLRLSCAASGLIFHHNAMGWYRQTPGKERELVAAISRSAGSTYYADSVKGRFTISRDNAKNTVYLQMKSLKPEDTAVYYCAKGPTPTSKYDTVGYGYWGQGTQVTVSS”, with “low polyreactivity”. Then “QVQLVESGGGLVQAGGSLRLSCAASGLIFHPYTMGWYRQAPGKERELVAAITSTGGSTYYADSVKGRFTISRDNAKNTVYLQMNSLKPEDTAVYYCATDYGYYDYWGQGTQVTVSS”, with “low polyreactivity”. For the sequence “QVQLVESGGGLVQAGGSLRLSCAASGLIFHSYAMGWYRPAPGKERELVAAISRGGGSTYYADSVKGRFTISRDNAKNTVYLQMNSLKPEDTAVYYCAREYFTRYDYWGQGTQVTVSS”, the “polyreactivity (PSR sort gate)” value is “high polyreactivity”. With “QVQLVESGGGLVQAGGSLRLSCAASGLIFHTYAMGWYRQAPGKERELVAAIRGGGSTNYADSVKGRFTISRDNAKNTVYLQMKSLKPEDTAVYYCNATWNLFPGVLDRYDYWGQGTQVTVSS”, the “polyreactivity (PSR sort gate)” value was “low polyreactivity”. The same measure for “QVQLVESGGGLVQAGGSLRLSCAASGLIFIAYAMRWYRQAPGKERELVAAISSSGGSTYYADSVKGRFTISRDNAKNTVYLQMNSLKPEDTAVYYCAADRYAWGTGRYGYWGQGTQVTVSS”: “low polyreactivity”; for “QVQLVESGGGLVQAGGSLRLSCAASGLIFIKYTMGWYRQAPGKERELVAVISGSGGSTYYADSVKGRFTISRDNAKNTVYLQMNSLKPEDTAVYYCAARSYALGYGGGYWGQGTQVTVSS”: “high polyreactivity”.

Regarding “QVQLVESGGGLVQAGGSLRLSCAASGLIFISYAMGWYRQAPGKERELVAAITSTVGGTYYADSVKGRFTISRDNAKNTVYLQMNSLKPEDTAVYYCAAEISYRWWYNLGFTSFVYWGQGTLVTVSS”, the “polyreactivity (PSR sort gate)” value is listed as “low polyreactivity”. Then “QVQLVESGGGLVQAGGSLRLSCAASGLIFIYNTMGWSRQAPGKERELVAAISGRGGSTYYADSVKGRFTISRDNAKNTVYLQMNSLKPEDTAVYYCAAQDTYHSYGLYSWGQGTQVTVSS”, with “low polyreactivity”; and “QVQLVESGGGLVQAGGSLRLSCAASGLIFKLYAMGWYRQAPGKERELVAAITDRGGSTYYADSVKGRFTISRDNAKNTVYLQMNSLKPEDTAVYYCAAPYAGWRDGGDYWGQGTQVTVSS”, with “low polyreactivity”; and “QVQLVESGGGLVQAGGSLRLSCAASGLIFKRNAMGWYRQAPGKERELVATISGSGGSTYYADSVKGRFTISRDNAKNTFYLQMNSLKPEDTAVYYCAAEASSVSYPYEYEYWGQGTQVTVSS”, with “high polyreactivity”. “QVQLVESGGGLVQAGGSLRLSCAASGLIFKSYAMGWYRQAPGKERELVAAISSGGTTYYADSVKGRFTISRDNAKNTVYLQMNSLKPEDTAVYYCAAYFKQPVEPCEYWGQGTQVTVSS”: the “polyreactivity (PSR sort gate)” value was “high polyreactivity”. Take “QVQLVESGGGLVQAGGSLRLSCAASGLIFKTYTMGWYRQAPGKEREFVAAITTSGGSTYYADSVKGRFTISRDNAKNTVYLQMNSLKPEDTAVYYCAAVWWKSFQGSSYRMNYWGQGTQVTVSS”: the “polyreactivity (PSR sort gate)” value is recorded as “high polyreactivity”.

For the sequence “QVQLVESGGGLVQAGGSLRLSCAASGLIFLDYAMGWYRQAPGKERELVAAISRSGGRTYYADSVKGRFTISRDNAKNTVYLQMNSLKPEDTAVYYCAADGSRKSEIYDYWGQGTQVTVSS”, the “polyreactivity (PSR sort gate)” value is given as “high polyreactivity”.

For the sequence “QVQLVESGGGLVQAGGSLRLSCAASGLIFLTYARGWYRQAPGKERELVATISGSTGGTYYADSVKGRFTISRDNAKNTVYLQMNSLKPEDTAVYYCNASVFQSEYDYWGQGTQVTVSS”, the “polyreactivity (PSR sort gate)” value is on record as “low polyreactivity”. In the case of “QVQLVESGGGLVQAGGSLRLSCAASGLIFLYAMGWYRQAPGKERELVAAISNGGSTYYADSVKGRFTISRDNAKNTVYLQMYSLKPEDTAVYYCAVYYPGKYGYWGQGTQVTVSS”, the “polyreactivity (PSR sort gate)” value is recorded as “high polyreactivity”. The same measure for “QVQLVESGGGLVQAGGSLRLSCAASGLIFLYYAMGWNRQAPGKERELVAAIRTNYADSVKGRFTISRDNAKNTVYLQMNSLKPEDTPVYYCAAESCQTPTSAFDYWGQGTQVTVSS”: “low polyreactivity”; for “QVQLVESGGGLVQAGGSLRLSCAASGLIFLYYAMGWYRQAPGKERELVAAISRRGGSTYYADSVKGRFTISRDNAKNTVYLQMNSLKPEDTAVDYCAANYESYPRGIWTYYYWGQGTQVTVSS”: “high polyreactivity”.

Turning to “QVQLVESGGGLVQAGGSLRLSCAASGLIFNLNAMGWYSPAPGKEREFVATITGIGGSTYYADSVKGRFTISRDNAKNTVYLQMNSLKPEDTAVYYCAADAWFVPYNYWGQGTQVTVSS”, the “polyreactivity (PSR sort gate)” value was “low polyreactivity”.

“QVQLVESGGGLVQAGGSLRLSCAASGLIFPIYAMGWYRPAPGKERELVAVITWSGGSTYYADSVKGRFTISRDNAKNTVYLQMNSLKPEDTAVYYCSVEWAYPYWYTYYLEDYWGQGTQVTVSS”: the “polyreactivity (PSR sort gate)” value is “low polyreactivity”. Then “QVQLVESGGGLVQAGGSLRLSCAASGLIFPIYAMGWYRQAPGKERELVAVITWSGGSTYYADSVKGRFTISRDNAKNTVYLQMNSLKPEDTAVYYCAVEWAYPYWYTYYLEDYWGQGTQVTVSS”, with “low polyreactivity”; and “QVQLVESGGGLVQAGGSLRLSCAASGLIFPLYDMGWYIQAPGKDRELVAAITWGGGGTYYADSVKGRFTISRDNAKNTVYLQMNSLKPEDTAVYYCNADSDIAAPLRTYITFDYWGQGTQVTVSS”, with “low polyreactivity”; and “QVQLVESGGGLVQAGGSLRLSCAASGLIFPPNVMGWYRQAPGKDRELVAAITSSGSTNYADSVTGRFTISRDNAKNTVYLQMNSLKPEDTAVYYCARDQTWSYQPWYYLSYTQYEYWGQGNQVTVSS”, with “low polyreactivity”. As to “QVQLVESGGGLVQAGGSLRLSCAASGLIFPRYAMGWYRQAPGKERELVAAISSGGSTNYADSVKGRFTISRDNAKNTVYLQMNSLKPEDTAVYYCAASSYYYRFSRWPYYHRYYWGQGTQVTVSS”, the “polyreactivity (PSR sort gate)” value is listed as “low polyreactivity”. The same measure for “QVQLVESGGGLVQAGGSLRLSCAASGLIFPRYGMGGYRPAPGKERELVAAITRGGSTYYADSVKGRFTISRDNAKNTVYLQMNSLKPEDTAVYYCIAELPVHWSWYDYWGHGTQVTVSS”: “low polyreactivity”.

With “QVQLVESGGGLVQAGGSLRLSCAASGLIFPRYGMVWYRKAPGKERELVAAISWSGGSTYYADSVKGRFTISRDNAKNTVYLQMNSLKPEDTAVYYCAVLSNRGVYGSDYWGQGTQVTVSS”, the “polyreactivity (PSR sort gate)” value was “high polyreactivity”. Then “QVQLVESGGGLVQAGGSLRLSCAASGLIFPSYTMGWYRQAPGKERELVAAITFSGDSTNYADSVKGRFTISRDNAKNTVYLQMNSLKPEDTAVYYCAASQVSDTTRFGYWGQGTQVTVSS”, with “low polyreactivity”; and “QVQLVESGGGLVQAGGSLRLSCAASGLIFPVYAMGWYRQAPGKDREFVASIWRGGTTYYADSVKGRFTISRDNAKNTVYLQMNSLKPEDTAVYYCAAVVYSRGYYWGQGTQVTVSS”, with “high polyreactivity”; and “QVQLVESGGGLVQAGGSLRLSCAASGLIFPYNAMGWYRQAPGKERELVAAIDTRGSSTYYADSVKGRFTISRDNAKNTVYLQMNSLKPEDTAVYYCAADYRVQLRKEYDYWGQGTQVTVSS”, with “high polyreactivity”. Then “QVQLVESGGGLVQAGGSLRLSCAASGLIFPYYAMGWYRQAPGKERELVAAISYRGSRTYYADSVKGRFTISRDNAKNTVYLQMNSLKPEDTAVYYCIAGVSGRDNYWGQGTQVNVSS”, with “high polyreactivity”.

On to “QVQLVESGGGLVQAGGSLRLSCAASGLIFQVYTMGWYRQAPGKERELVAAISWDAGSTYYADSVKGRFTISRDNAKNTVYLQMNSLKPEDTAVYYCAAKRKIRGYGPYEYWGQGTQVTVSS”, for which the “polyreactivity (PSR sort gate)” value is given as “high polyreactivity”.

Regarding “QVQLVESGGGLVQAGGSLRLSCAASGLIFRAYAMGWSRPAPGKERELVAAITSSSGSTYYADSVKGRFTISRDNAKNTVYLQMNSLTPEDTAVYYCNAYSTFGWYDYWGQGTQVTVSS”, the “polyreactivity (PSR sort gate)” value is recorded as “low polyreactivity”. The same measure for “QVQLVESGGGLVQAGGSLRLSCAASGLIFRHYAMGWYRQAPGKERELVAAIDYSGGSTYYADSVKGRFTISRDNAKNTVYLQMNSLKPEDTAVYYCAADYFWLYYSEYGYWGQGTQVTVSS”: “low polyreactivity”; for “QVQLVESGGGLVQAGGSLRLSCAASGLIFRHYAMGWYRQSPGKEREFVAAITWSGGSTYYADSVKGRFTISRDNAKNTVYLQMNSLKPEDTAVYYCAAEGPGYGPTGDFYWYTYYYWGQGSQVTVSS”: “low polyreactivity”; for “QVQLVESGGGLVQAGGSLRLSCAASGLIFRPYTMGWYRQAPGKERELVATISGSGASTNYADSVKGRFTISRDNAKNTVYLQMNSLKPEDTAVYYCKGRSYSRMYYWGQGTQVTVSS”: “high polyreactivity”.

For the sequence “QVQLVESGGGLVQAGGSLRLSCAASGLIFRRYAMGWYRQAPGKERELVAAITSSGGSTYYADSVKGRFTISRDNAKNTVYLQMNSLKPEDTAVYYCNAYYTGRSAPDSWGQGTQVTVSS”, the “polyreactivity (PSR sort gate)” value is recorded as “high polyreactivity”. “QVQLVESGGGLVQAGGSLRLSCAASGLIFRRYAMGWYRQAPGKERELVATINSGGSTNYADSVKGRFTISRDNAKNTVYLQMNSLKPEDTAVYYCAAKKFRRFTKWYDYWGQGTQVTVSS”: the “polyreactivity (PSR sort gate)” value was “high polyreactivity”. Then “QVQLVESGGGLVQAGGSLRLSCAASGLIFRSNAMGWYRQAPGKERELVAAISRNGQSTYYADSVKGRFTISRDNAKYTVYLQMNSLKPEDTAVFYCAARSRDKYDYWGQGTEVTVSS”, with “high polyreactivity”; and “QVQLVESGGGLVQAGGSLRLSCAASGLIFRVNAMGWYRQAPGKERELVADINSGGGTSYADSVKGRFTISRDNAKNTVYLQMNSLKPEDTAVYYCAAAWWPYSYPTYYSQYDYWGQGTQVTVSS”, with “low polyreactivity”.
